Reference: patent US20250340646A1 (ELPIS BIOPHARMACEUTICALS, published 2025)
Substitutions are numbered along the chain they refer to. In names and notes the source's numbering stands.

B1: IL-2/anti-PD-L1 scFv Fc EP290/EP326 (bispecific antibody)
chain 1: not shown
chain 2: QVQLVQSGAEVKKPGSSVKVSCKASGGTFSSYAISWVRQAPGQGLEWMGGIIPIFGTANYAQKFQGRVTITADESTSTAYMELSSLRSEDTAVYYCARDKWYGSAWRGDYWGQGTLVTVSSGGGGSGGGGSGGGGSQSVLTQPPSASGTPGQRVTISCSGSYSNIGSNFVNWYQQLPGTAPKLLIHFNNQRPSGVPDRFSGSRSGTSASLAISGLQSEDEADYFCSTWDDSLKGPIFGGGTKLTVLDKTHTCPPCPAPEAAGGPSVFLFPPKPKDTLMISRTPEVTCVVVDVSHEDPEVKFNWYVDGVEVHNAKTKPREEQYNSTYRVVSVLTVLHQDWLNGKEYKCKVSNKALGAPIEKTISKAKGQPREPQVCTLPPSRDELTKNQVSLSCAVKGFYPSDIAVEWESNGQPENNYKTTPPVLDSDGSFKLVSKLTVDKSRWQQGNVFSCSVMHEALHNHYTQKSLSLSPGK
notes: IL2-Fc knob with 2019EP69-F03 scFv-Fc hole (EP326)
B2: IL-2/anti-PD-L1 scFv Fc EP412/EP326 (bispecific antibody)
chain 1: not shown
chain 2: B1 chain 2
notes: IL2 with T3A/K35L/R38D/F42R
B3: IL-2/anti-PD-L1 scFv Fc EP415/EP326 (bispecific antibody)
chain 1: not shown
chain 2: B1 chain 2
notes: IL2 EP337
B4: IL-2/anti-PD-L1 scFv Fc EP417/EP326 (bispecific antibody)
chain 1: not shown
chain 2: B1 chain 2
notes: IL2 EP339
B5: IL-2/anti-PD-L1 scFv Fc EP297/EP326 (bispecific antibody)
chain 1: not shown
chain 2: B1 chain 2
notes: IL2 EP001
B6: IL-2/anti-PD-L1 scFv Fc EP416/EP326 (bispecific antibody)
chain 1: not shown
chain 2: B1 chain 2
notes: IL2 EP338
B7: IL-2/anti-PD-L1 scFv Fc EP291/EP326 (bispecific antibody)
chain 1: not shown
chain 2: B1 chain 2
notes: IL2 EP003
B8: 2018EP171-H02 scFv (scFv, V domains shown)
VH: QVQLVQSGAEVKKPGSSVKVSCKASGGTFSSYAISWVRQAPGQGLEWMGGIIPIFGTANYAQKFQGRVTITADESTSTAYMELSSLRSEDTAVYYCARDKGYGSGWRGDYWGQGTLVTVSS
VL: QSVLTQPPSASGTPGQRVTISCSGSYSNIGSNFVNWYQQLPGTAPKLLIHFNNQRPSGVPDRFSGSRSGTSASLAISGLQSEDEADYFCSTWDDSLKGPIFGGGTKLTVL
B9: 2018EP172-F10 scFv (scFv, V domains shown)
VH: B8 VH with V2M
VL: B8 VL with N52D
B10: 2018EP161-F08 scFv (scFv, V domains shown)
VH: not shown
VL: DIVMTQSPSSLSASVGDRVTITCRASQTVSTYINWYQQRSGKGPKLLIFDASRLQSGAPSRFSGSGSGTEFTLTITSLQPDDSATYYCQQSYRIPLSFGGGTKVEIR
B11: 2018EP164-F04 scFv (scFv, V domains shown)
VH: QVQLQQWGAGLLKPSETLSLTCAVYGGSFSGYYWSWIRQPPGKGLEWIGEINHSGSTNYNPSLKSRVTISVDTSKNQFSLKLSSVTAADTAVYYCARGRRLRYFDWAAYNWFDPWGQGTLVTVSS
VL: QSALTQDPAVSVALGQTVRITCQGDSLRSHYASWYQQKPGQAPVVVVYDNSDRPSGIPDRFSGSNSGNTATLTISRVEVGDEADYYCQVWDSSSDHYVFGTGTKV
B12: 2018EP173-H11 scFv (scFv, V domains shown)
VH: QVQLVQSGGGLVKPGGSLRLSCAASGFTFSSYSMNWVRQAPGKGLEWVSSISSSSSYIYYADSVKGRFTISRDNAKNSLYLQMNSLKAEDTAVYYCARDSLQWLALDYWGQGTLVTVSS
VL: QPVLTQPPSVSVAPGETATITCGGNNIGRKSVHWYLQKPGQAPVLVIGHDTDRPSGIPARFSGSNSGNTATLTINRVEAGDEADYYCQVWDTSGHHYVFGTGTKVTVL
notes: not shown: scFv linker and domain order of the library scFv
B13: 2019EP69-F02 scFv (scFv, V domains shown)
VH: B8 VH with G101W
VL: B8 VL
B14: 2019EP69-E10 scFv (scFv, V domains shown)
VH: B8 VH with Y102F
VL: B8 VL
B15: 2019EP69-H10 scFv (scFv, V domains shown)
VH: B8 VH with G101W, Y102F
VL: B8 VL
B16: IL-2/anti-PD-L1 scFv Fc EP419/EP326 (bispecific antibody)
chain 1: not shown
chain 2: B1 chain 2
notes: IL2 EP343
B17: IL-2/anti-PD-L1 scFv Fc EP414/EP326 (bispecific antibody)
chain 1: not shown
chain 2: B1 chain 2
notes: IL2 EP003 carrying K35L/R38D/F42R

biological target: T1, recombinant His-tagged human IL-2Rβ (human, UniProt P14784 27-240, limits assumed); assay: SPR, Protein A capture, IL-2Rβ-HIS analyte
T1 construct: also called IL-2Rβ-HIS; IL-15Rβ-HIS
T1 sequence (looked up): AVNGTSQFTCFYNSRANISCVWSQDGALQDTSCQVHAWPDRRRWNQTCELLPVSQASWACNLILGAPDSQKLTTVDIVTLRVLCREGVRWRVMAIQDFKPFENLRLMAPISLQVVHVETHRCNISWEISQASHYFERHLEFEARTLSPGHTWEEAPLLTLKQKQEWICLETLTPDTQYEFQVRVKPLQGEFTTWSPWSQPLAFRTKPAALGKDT
Description: (§1) The assay was run with Biacore T200 control software version 2.0. For each cycle, 1 μg/mL of anti-hPD-L1/IL-2 was captured for 60 seconds at flow rate of 10 μL/min on flow cell 2 in 1×HBSP buffer on Protein A sensor chip. […] The flow cells were then regenerated with Glycine pH2 for 60 seconds at flow rate of 30 μL/min. […] The specific binding response unit was derived from subtraction of binding to reference flow cell 1 from antibody captured flow cell 2.

Kd [nM]	koff [s⁻¹]	kon [M⁻¹ s⁻¹]	Binder
57.4			B1
12000			B2
6.17			B3
21.9			B4
3.32	0.00854	2.57e+06	B5
26.5			B6
1.87			B7

biological target: T2, full-length human PD-L1 on K562 cells (human, UniProt Q9NZQ7 19-290); assay: FACS, PD-L1/K562 cells
T2 construct: also called PD-L1/K562; cell surface human PD-L1
Description: (§2) Cells were spun down at 1200 rpm for 5 minutes at 4° C. to remove primary antibodies. Cells were then washed once with 200 μL of full medium per well. […] Samples were spun down at 1200 rpm for 5 minutes at 4° C. and washed twice with 200 μL of 1×PBS per well. Samples were reconstituted in 200 μL of 1×PBS and were read on Attune NxT cytometer.

EC50 [nM]	Binder
0.25	B8
< 1	B9
7.72	B10
< 1	B11
5.1	B12

biological target: T2, full-length human PD-L1 on K562 cells; assay: FACS, PD-L1/K562 cells; remark: another data set of the same source
Description: as §2
The production, the binding, and all of the characterization assays for selected affinity matured scFv clones were performed as described above.

EC50 [nM]	Binder
0.25	B8
2	B13
0.207	B14
0.0799	B15

biological target: PD-L1 on PD-L1 aAPC/CHOK1 cells (Promega J1250); assay: cell-based or functional assay

NFAT reporter EC50 [nM]	Binder
2.3	B1
2.61	B2
3.46	B3

biological target: T3, PD-L1 biotinylated (PD-1/PD-L1 TR-FRET assay kit, BPS 72038) (Homo sapiens (Human), UniProt Q9NZQ7 19-238, biotinylated; site not stated); assay: HTRF competition, competitor PD-1-Eu
T3 construct: Kit reagent
Description: Briefly, 1× Immuno buffer 1 was made. […] For each well in 384-well plate, serial diluted scFvs and regents were added according to manufacturer's recommended volume. Samples were incubated at room temperature for 1.5 hours then the fluorescent intensity was read with Biotek Neo2 plate reader using manufacture's instrument setting for the assay.

IC50 [nM]	Binder
176	B1
134	B2
2280	B3

biological target: T1, recombinant His-tagged human IL-2Rβ; assay: ELISA, coated His-tagged IL-2Rβ
Description: For monovalent IL-2 Fc-fusion proteins, recombinant His-tagged human IL-2Rα and IL-2Rβ were added in 25 μL of 1×PBS to wells of 384-well plate and incubated overnight at 4° C. to coat the plates. Plates were washed three times with 0.05% Tween20/1×PBS. Plates were blocked with 100 μL of SuperBlock for 1 hr at RT and then washed 3 times with 0.05% Tween20/1×PBS. IL-2 mutants were diluted in 0.05% Tween 20/1×PBS from 1000 nM to 0 nM and added to plates for 2 hrs at room temperature. Plates were then washed 6 times with 0.05% Tween20/1×PBS. Anti-HisTag-HRP was diluted 1:5000 in 0.05% Tween20/1×PBS and added to plates for 1 hr at RT. Plates were then washed 6 times with 0.05% Tween 20/1×PBS, and TMB was added to develop blue color. Reactions were stopped with 2N […] and light absorbance at 450 nm was read on a BioTek plate reader. Absorbance versus IL-2 concentration is graphed for human IL-2Rα and IL-2Rβ. […]

EC50 [nM]	Binder
4.01	B1
2.18	B2
1.33	B3
0.515	B4
0.613	B16
0.51	B17
0.43	B5
1.24	B6
0.552	B7

biological target: biotinylated PD-L1 (Homo sapiens (Human), UniProt Q9NZQ7 19-238, biotinylated; site not stated); assay: ELISA, anti-human Fc capture, biotinylated PD-L1
Description: A 384 well plate was immobilized with anti-human Fc at final concentration of 2 μg/mL in 1×PBS in total volume of 25 μL per well. The plate was incubated overnight at 4C followed by blocking with 80 μL of superblock per well for 1 hour. […] In between each step, the plate was washed 3 times with 1×PBST in a plate washer. The plate was then developed with 25 μL of TMB substrate for 5 min and stopped by adding 25 μL of 2N sulfuric acid. The plate was read at OD450 nm Biotek plate reader and the binding correlation was plotted with Prism 8.1 software. The ELISA binding assays of the antibodies to IL-2Rα and IL-2Rβ receptors were performed as described in Example 6.

EC50 [nM]	Binder
0.141	B1
0.156	B2
0.227	B3
0.188	B4
0.206	B16
0.212	B17
0.108	B5
0.298	B6
0.246	B7

biological target: T4, human PD-L1-HIS tagged recombinant protein (human, UniProt Q9NZQ7 19-238); assay: SPR, Protein A capture, PD-L1-HIS analyte
T4 construct: also called hPD-L1-HIS; PD-L1 HIS tagged protein
Description: as §1

Kd [nM]	koff [s⁻¹]	kon [M⁻¹ s⁻¹]	Binder
0.464			B1
0.593			B2
0.465			B3
0.429			B4
0.19	0.000149	782000	B5
0.39			B6
0.34			B7
